Here are results for 20 sequences from the DeepSol protein solubility set.

This series in a line: soluble on expression in E. coli; label from the status in PepcDB or PDB records.
Take “MTKAMTAHDYLPLIEKIRKRISSWTGRFLSYCGRLQLIKSVLMSITNFWSSAFRLPGNCMKEIERLCSAFLWSGPDLKTHNAKIAWSKVCLPMCEGGLGLRPLKEINTVCGLKLIWRLLASQTSLWGQWVQTYLIRRNNFWAIKASSYQGSWMWRKLLTLRDVARSFHKKEIHNGRNTSFWYDHWSSMGTLVDVLGARGCIDLGITTTTNMENVFTTRRSRKHRGDLLVRIEAEIEAAKTRHQPDIEDIDLWKPSTGYKKTFSTRETWKLIRMAEPVCEWAKGVWFPKPHQNLLSLLGWVCTIVFQQGTECKSGTAKLTLLAFSAKTLWKQEITYSSTVTTPIKFGKL”: the “soluble on expression in E. coli” value was “not soluble”.
Under “MQASASNSSSYTVNASVLHVRAGSSTSHDIISRVYNGQSLNVIGEENGWYKININGKTGFVSGEFVSKNGTSNSNVSTTGGKNKVTADVLRVRTAPNTSSSVSGRVYEGQTLNVIGQENGWVKINHNGQVGYVSGEFVSGVSSNAGSSNSNTNNNNQESVKPASGNYTVNVSSLRVRTGPSTSHTTVGSVTKGQVVQVVGEVQDWFKINYAGQTAYVSKDYVTKGGSSDNVTQGNNQNNNQNNNVTVQTGGTYVVNATSLRVRTGPATYHSVIGGVLNGTTLNVIGSEGSWFKVNYQGKTGYVSSEFMKFVKGGTTTPEQPKQPEQPNQGAIGDYYINASALNVRSGEGTNYRIIGALPQGQKVQVISENSGWSKINYNGQTGYIGTRYLSKTPVGGAVDNNKPNNNQNNNQNNNNNTGNNSGNSSSILAYAKGMQGVPYVWGGTSANGVDCSGYIYHVFKKFGHNISRQSVAGYWGSLPQTSNPQPGDLIYFQNTYKSGPSHMGIYLGGGSFIQAGDKGVAIASLSNSYWKSHFLGYTKAPLEHHHHHH” stands “soluble”; under “GSCEKENIGIEVTPVNAKFIITPVVIDATTGTDVTQSAEISFSKGNGTYEGTPELASESININAKYKGMTGSASVTIPALKAGQFGAKEVTIILSENFFAQEESSNSQIETTKHSGFKNNTSDYWYYITVTYTKKEGSEVIKNDYEGDDSEIKNIIDAYNKGVREDKVTLNDVQVLAHSRFSVFVDYMKTTSVYQIIEKSPKRDGNPVASFTVDSYNTIVSPKNEQIPGHGHAPSHGHGHGHGDDSNAGGGIIIAD”, “soluble”.
As to “MVDKAGNPLTVDDISQCHLPGFPILFTQNELLEILAKEIFKQQFLWKSVQDKDIKECNKEERIIKQIPLMPRCPDVLKGLFHCIEIRDERSPKHAIAYKSCLGKLEEMVKDQWDDWNRNQS”, the “soluble on expression in E. coli” value was “not soluble”.
Regarding “MAHHHHHHMDEIKWPLRLLQILRNHLEQVDHPHEPRTLPIAAKCGQGGVLAFLTDVDDDVRRRTGASECITACCRGLVLDMIEQCCTLLFLSSKERRVINMAAVQREKRVVARGVGKRRRGDQGETTEETAIGETDNSQRKCAAVLPLEYLLRLFVALPSLLAHYDKLGGSTMPAAFKQPLWNYVNAVLDIMKDMTFLDPSEYIPLR”, the “soluble on expression in E. coli” value is “not soluble”.
With “MNASSRTKPAIDLNKVPPIDHHRTAVTFNCLIMKMTEMLNNFGNKMEDILEKAEQSLDTADRKLRLMESKLAGMSLEDKSTTATPSSAPEIDEIHESNPSSSQIVEETVEEKPEEHTTTVLIKDDPAYSKYFKMLKLGVLEAGVIQKMKSEGVDPSILKRGDEPSRPQAQTSRNYESSGESTASFSDSD”, the “soluble on expression in E. coli” value is on record as “not soluble”.
Under “MVAERNKDGRVVFDRGLRAQMMAIDGTWRRPCLIEDVSELGAKLTVEGTVEGLNLKEFFLLLSSTGLAYRRCELSWINGDQIGVTFLRLDRKKKRAAQVENA” stands “not soluble”.
For the sequence “MSLSTNLITTGIGTEQLEQLLSEYFPTYQISRIDRDSTGRKGALEHHLNAIQTGKSQILIGTQMLAKGHHFPNVTLVALVNVDSALFSTDFRAEERLAQLYLQVAGRAGRAEKTGEVVLQTHYPDHPLLKCLLKDGYNAFAEEALKMRQVMALPPFTAQVLFRATGKQSDKVEHLLQNLTAYFQHKSVELGIEGIQISPPFSAIVAKKAGYYRWLLLIQHQSRSAIQQLLNVFDQEKSALNLPANIRLSLDVDPYDMSEGHHHHHH”, the “soluble on expression in E. coli” value is reported as “not soluble”.
Under “MGPLVKEKYEEVEQIPLKKPHIVSLIGGFGYREPIFRKVLTTAALDSGINYTLISGPSLDPSKFKEIPKNVQILRFVGDTFPYIRSSDAVIAPGGHSTMMEALSFGTPILSFPDEGHSEQENNAAVIEEEGYGRMLSYSTPPEVILECIREVLEDKKYRDKVKRLQRLASELDGLEHHHHHH” stands “soluble”.
As for “MVMIISTMEPQVSNGPTSNTSNGPSSNNRNCPSPMQTGATTDDSKTNLIVNYLPQNMTQEEFRSLFGSIGEIESCKLVRDKITGQSLGYGFVNYIDPKDAEKAINTLNGLRLQTKTIKVSYARPSSASIRDANLYVSGLPKTMTQKELEQLFSQYGRIITSRILVGQVTGVSRGVGFIRFDKRIEAEEAIKGLNGQKPSGATEPITVKFANNPSQKSSQALLSQLYQSPNRRYPGPLHHQAQRFRLDNLLNMAYGVKRFSPITIDGMTSLVGMNIPGHTGTGWCIFVYNLSPDSDESVLWQLFGPFGAVNNVKVIRDFNTNKCKGFGFVTMTNYDEAAMAITSLNGYRLGDRVLQVSFKTNKAHKS”, the entry is “soluble”; as for “MRTLLIRYILWRNDGDPSYYNDDFKKLILFDELVDDDDVCTLIKNMRMTLSDGPLLDRLNQPVNNVEDVKRMIAISAKVARDIGRRSEIRWEDSFTILFRMIEKYFDDLMTDLYGEK”, “not soluble”; as for “TKVKSIPLLIVPPWINKYYILDLSPHNSLIRWLVEQGITVFIISWVNPDETYANKSFYDYLNEGPREAIAVIQKQLRVKQVNTLGFCIGGTLLASLLAYNKATKDHSIRSATFLAAMIDFSDPGDIAVFIDEQQINKLEEEMKSKGYLAGKFMASSFNSLRANDLIWSFFIKNYLRGKSPVPFDILYWNADSTNMPATMHSQYLRWMYLHNNLIKPGKIRLNHIPIDVTNIDIPTFFLSTQKDHIAPWKTTYKGFELMKGPKRFVLGGSGHI”, “not soluble”.
Under “MGSDKIHHHHHHMLNFSLTPNAKILSKDADSYPYMYRNYPFLRPWVDSLKQVNALKDTFIINPQGIQLHAFYITAPAPTSKTAVIVHGYTDNAIRMFMIGYLYNRDLGYNILLPDLQHQGESEGRAIQMGWKDRIDVLQWMNIANEIFGDSTQMVVHGISMGGATTMMVSGEKQQPYVKCFVEDCGYTSVWDEFSHELKSSFHLPAFPLMYTTSWLCEKKYGWNFKEASSLKQVEKCELPMLFIHGDKDTYVPTWMVYPLYEAKPEPKELWIVPGAAHALSYKENKQEYTDKVRDFVGRYIH” stands “not soluble”.
“MGSDKIHHHHHHCDETELDQTVTNQVNPQKEEDSRIVFNSAKEFYNTLDTLSYMTYEEQTEWIRASGIKYPLYKDLEFCEDEIMTEMPRAFQALFNHKMEMQINDTVIAFEKGNMYVKSIKEKILPVPVLYGQVGVNQEESEVTTRTVYETKYGKIGTSYQYEFKIPEGKSKYKYVHELKSVIIKENLPPYKSWSNLFLVLKLEWKGKKKWKVAEKEERNISIDLNVCKRNLAKVKYNQEIRIDVQNMDSKSHSINIEGYIIHEVVGIPSTKMFNGWSYPLVEWQPR”: the “soluble on expression in E. coli” value is recorded as “not soluble”.
As for “MGSDKIHHHHHHMYPNLTSEQALLILQSARNPDKAYDLFAQAAEVRDKVFGKRLWWSSGSGGIFPCLVKPRCSYCTYYTEKLFPTDVLLTGLELIESLGIQQFHISGGTDLDEGYDEQLLELVQAIKTRSGLKLEINLGPSFRQETVLELKKLGIDSVTSSLECNTPAIFARAKPGDSLERRRELLHHCEEADMPSRSMMLLGLGETDQERIEHLFYLQQFKKLYQLRLSRFMPFPGTLYKDRSRCSPWDTALITAMARLILPNLEISLAAGNSNDDIPLWYLAGGGSQLLGVSITRKEPPATPDVDVYAIGEGAYVVDKRQQVARVLEGMNLEVTCEMPDYRALQSQF”, the entry is “not soluble”; as for “MDQALYSLETRFEQFQRYEQIFGFLFDLKKLQSASDDSLMASCTNLKDALTHGTHSDILASDLFYELKILREALPKEVRRPIEVLDFLQKVEGCYPNSWIAYQVLLTIPVSVASAERSFSKLKLIKSYLRSSMSQERLSDLAILSIERALVREVDFERLANDFVGKKGRRITL”, “soluble”; as for “MAHHHHHHMEKNQNDKSNKNDIIHMNDKSGNYDKNNINNFIDKNDEHDMSDILHKINNEEKKYEEIKSYSECLELLYKTHALKLGLDNPKKLNESFGHPCDKYKTIHIAGTNGKGSVCYKIYTCLKIKKFKVGLFSSPHIFSLRERIIVNDEPISEKELIHLVNEVLNKAKKLYINPSFFEIITLVAFLHFLNKKVDYAIIETGIGGRLDATNILTKPEVIVITSIGYDHLNILGDNLPIICNEKIGIFKKDANVVIGPSVAIYKNVFDKAKELNCTIHTVVPEPRGERYNEENSRIALRTLEILNISIDYFLKSIIPIKPPLRIQYLATEQIQHIKKKFSPDNLEHNVQYPLAVILDVGHNETAIDRLCTDINYFHKGQNIRICISITKPRNLSVFHPFIAQFGDTLKDIFYLPSLNERTYDFEEIVEMLNNEEEIKNEIKELILSSSKKVGKWLAHEKQGNINEEDALKLYKRGCIPLIIKNAFLECCKDNSILLVCGTFFVFDEVLNVFDIHSDMQDTIFMNEPSLV”, “soluble”.
Under “MAKLENPILMAKIGGAQGLRGEVRVSTYTDDPMALGDYGNLVTADGRVFEILEVREGKNVVVVRFRGINDRNAAESLNGLELFIERDNLPDDELDDDEFYYADLEGLEAVDAEGKSYGAVSAVYDFGAGDLLELKGAGRRPALIPFSEAAVLEIDLEAGRILIDPMAAGLIDNPDDKDQNGMSPFGKKLEHHHHHH” stands “not soluble”; under “MDKIIFQRVTDCEYPSLFSIYKKYLKPTIEEALGWDELYQQQRFNQSYQKEWFDWIMYNGERLGIICTKPDAIRSTIHIHLLIVFEKYQNKGVGTAVMKCYQKHYSDAVTKSCLSAFKVNKSVINFYLSLGYQIVREDEHFVEMERSLCFSGYMGES”, “not soluble”.
“GAVETLQGKAATGELLEKSVNTIRFLAIDAVEKANSGHPGLPMGCAPMGHVLYDEVMRYNPKNPYWFNRDRFVLSAGHGCMLQYALLHLAGYDSVKEEDLKQFRQWGSRTPGHPENFETPGVEVTTGPLGQGIANAVGLALAEKHLAARFNKPDSEIVDHYTYVILGDGCQMEGIANEACSLAGHWGLGKLIAFYDDNHISIDGDTEIAFTEDVSTRFEALGWHTIWVKNGNTGYDDIRAAIKEAKAVTDKPTLIKVTTTIGFGSPNKANSYSVHGSALGAKEVEATRQNLGWPYDTFFVPEDVKSHWSRHTPEGAALEADWNAKFAEYEKKYADDAATLKSIITGELPTGWVDALPKYTPESPGDATRNLSQQCLNALANVVPGLIGGSADLASSNMTLLKMFGDFQKDTAEERNVRFGVREHGMGAICNGIALHSPGFVPYCATFFVFTDYMRGAMRISALSEAGVIYVMTHDSIGLGEDGPTHQPIEHLVSFRAMPNILMLRPADGNETAGAYKVAVLNRKRPSILALSRQKLPHLPGTSIEGVEKGGYTISDNSTGNKPDLIVMGTGSELEIAAKAADELRKEGKTVRVVSFVSWELFDEQSDEYKESVLPAAVTARISIEAGSTLGWQKYVGAQGKAIGIDKFGASAPAGTIYKEYGITVESIIAAAKSF”: the “soluble on expression in E. coli” value is on record as “soluble”.
